In the supplement of paper PMC9732359:
± gives the uncertainty stated by the source.

Test: protein stability index of a GFP-peptide fusion (yeast GPS) (PSI 1-4); higher = more stable; sorted into four equal gates, so the index is relative within each strain
Summary of the method: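 Tiled 17-residue yeast protein peptides were fused downstream of GFP in a plasmid that also expresses Cherry, and the pooled library was carried in yeast. Mid-log cultures in leucine-free medium were sorted into four equal gates by GFP/Cherry fluorescence ratio, and plasmids from each gate were PCR-amplified and Illumina-sequenced, with reads assigned to strains by barcodes. The protein stability index for each peptide was each gate's read frequency times its gate number, summed.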

| Sequence | protein stability index (doa10∆) | protein stability index (pdr5∆) | protein stability index (san1∆) | protein stability index (ubr1∆) |
| --- | --- | --- | --- | --- |
| FDENIARDIISHNFQNA [PCI8] | 2.74 ± 0.053 | 2.77 ± 0.046 | 2.67 ± 0.043 | 2.77 ± 0.039 |
| KYLEQVLDHQRAIPFRR [RPL17A] | 2.52 ± 0.059 | 2.35 ± 0.055 | 1.61 ± 0.083 | 1.78 ± 0.043 |
| ALPSTHKVTQKKDIKIG [SIR4] | 2.36 ± 0.099 | 2.46 ± 0.071 | 2.56 ± 0.07 | 2.77 ± 0.067 |
| PGGQAALRALARSGLRI [RPS14A] | 2.15 ± 0.032 | 2.35 ± 0.029 | 2.21 ± 0.04 | 1.92 ± 0.022 |
| VIDTLAAGYGKILGKGR [RPL28] | 3.09 ± 0.12 | 2.63 ± 0.085 | 3.11 ± 0.17 | 3.52 ± 0.14 |
| PENITKREASRGFFDIL [MCD1] | 3.1 ± 0.08 | 3.01 ± 0.082 | 3.13 ± 0.062 | 3.21 ± 0.058 |
| KSQNTALPSTHKVTQKK [SIR4] | 2.6 ± 0.061 | 2.9 ± 0.061 | 2.79 ± 0.071 | 3.01 ± 0.05 |
| FPRSRSRSRSSIRSISP [ESC2] | 2.86 ± 0.2 | 3.18 ± 0.13 | 3.03 ± 0.09 | 3.34 ± 0.19 |
| GDIVRMLETAGFSMNNP [SMC3] | 3.08 ± 0.095 | 3.26 ± 0.1 | 3.04 ± 0.089 | 3.16 ± 0.054 |
| KEVIELPVKHPELFESL [RPT6] | 2.98 ± 0.064 | 3.04 ± 0.036 | 3.05 ± 0.054 | 3.09 ± 0.055 |
| TGESEESSSEDDYEDQD [IRR1] | 3.5 ± 0.17 | 3.34 ± 0.16 | – | 3.57 ± 0.26 |
| RKLEISSRFKHRQEIFK [GAL11] | 2.76 ± 0.064 | 3.1 ± 0.061 | 3.01 ± 0.059 | 3.09 ± 0.051 |
| TNSTYNPASATDNMSGR [YJL039C/NUP192] | 2.71 ± 0.058 | 2.73 ± 0.063 | 2.47 ± 0.054 | 2.56 ± 0.052 |
| PINLENNDGSYGLFLKY [SRB8] | 3.07 ± 0.11 | 2.34 ± 0.075 | 2.18 ± 0.14 | 1.81 ± 0.069 |
| QKYVGEGARMVRELFEM [RPT1] | – | – | – | 2.92 ± 0.24 |
| INSAPDFTQEDELRKQE [ISW2] | 3.24 ± 0.084 | 3.52 ± 0.068 | 3.4 ± 0.062 | 3.46 ± 0.057 |
| VTIREQINIMPSLKAHF [SIR3] | 2.53 ± 0.077 | 2.83 ± 0.075 | 2.85 ± 0.059 | 2.68 ± 0.043 |
| FMKKLRAAKLAAPENEK [RPS15] | 2.85 ± 0.14 | 3.25 ± 0.17 | 2.48 ± 0.11 | 3.48 ± 0.22 |
| ERNNIGEICKNYELEKI [YDL116W/NUP84] | 2.91 ± 0.14 | 2.82 ± 0.095 | 2.94 ± 0.09 | 2.62 ± 0.059 |

| Sequence | protein stability index (doa10∆) | protein stability index (pdr5∆) | protein stability index (san1∆) | protein stability index (ubr1∆) |
| --- | --- | --- | --- | --- |
| LSSIEASLKIKNATDLQ [SMC3] | 1.84 ± 0.064 | 2.06 ± 0.091 | 2.56 ± 0.12 | 2.4 ± 0.077 |
| CESCSTILCTPTGGKAK [RPS27A] | 1.93 ± 0.046 | 2.32 ± 0.046 | 2.1 ± 0.055 | 2.18 ± 0.037 |
| REPRVVSALQMLKQHLF [PUP1] | 3.1 ± 0.13 | 3.05 ± 0.094 | 3.02 ± 0.066 | 2.79 ± 0.049 |
| DDYSNEDNEMLEDLFSY [YJR042W/NUP85] | 2.01 ± 0.15 | 1.94 ± 0.15 | 1.76 ± 0.18 | 1.66 ± 0.073 |
| SHIESDSTSHNNGSSDK [MED1] | 2.89 ± 0.042 | 2.94 ± 0.038 | 2.84 ± 0.042 | 3.01 ± 0.032 |
| VPYVLMGQIATFIYFAY [COB] | 1.38 ± 0.1 | 1.23 ± 0.1 | 1.17 ± 0.16 | 1.28 ± 0.078 |
| FLGEQVNEPTKNEEAEI [RPN1] | – | – | – | 3.56 ± 0.26 |
| QQQSSQNTVPNVLNQIN [GAL11] | 1.66 ± 0.063 | 1.82 ± 0.053 | 1.71 ± 0.078 | 2.01 ± 0.042 |
| VTRLFFICSIIQTVVIS [YML031W/NDC1] | 1.23 ± 0.051 | 1.28 ± 0.046 | 1.46 ± 0.076 | 1.75 ± 0.05 |
| YKHIDASGSINRKVLQA [RPS19A] | 2.06 ± 0.072 | 3.27 ± 0.12 | 2.49 ± 0.073 | 2.53 ± 0.083 |
| ITSINVENDTFIERNFT [FAS2] | 3.01 ± 0.089 | 2.68 ± 0.081 | 3.17 ± 0.072 | 3.19 ± 0.05 |
| IQFGAKNMFEKKASKVT [ISW2] | 2.66 ± 0.07 | 2.91 ± 0.072 | 2.68 ± 0.074 | 2.69 ± 0.11 |
| VDNDNWVYKTKGDGMTS [RPN1] | 3.12 ± 0.1 | 3.27 ± 0.065 | 3 ± 0.071 | 3.1 ± 0.11 |
| LVEEKTPGLTFNAIDLA [RPC82] | 3.23 ± 0.12 | 3.29 ± 0.11 | 3.25 ± 0.057 | 3.27 ± 0.086 |
| ANKTNLIESLNTIRQNV [YML103C/NUP188] | 1.57 ± 0.053 | 1.83 ± 0.053 | 1.73 ± 0.12 | 1.77 ± 0.063 |
| LEQQKQPTGLLKGLNGF [YMR153W/NUP53] | 3.53 ± 0.12 | 3.46 ± 0.11 | 3.18 ± 0.11 | 3.34 ± 0.074 |
| REQSSNDSETHTEDEST [BRN1] | – | 3.43 ± 0.27 | – | – |
| HEEDQKTNIIEKAMDYA [RPN12] | 2.52 ± 0.087 | 2.75 ± 0.078 | 2.37 ± 0.084 | 3.02 ± 0.096 |
| AAKLKQTENDLKDIEAR [RPT1] | 2.48 ± 0.1 | 2.53 ± 0.1 | 2.46 ± 0.19 | 3.1 ± 0.087 |

| Sequence | protein stability index (doa10∆) | protein stability index (pdr5∆) | protein stability index (san1∆) | protein stability index (ubr1∆) |
| --- | --- | --- | --- | --- |
| IGANIYQSPTIFKIVQS [MED6] | 2.25 ± 0.069 | 2.08 ± 0.072 | 1.84 ± 0.1 | 2.27 ± 0.037 |
| MQANTNALRRNLLKDEG [SSN3] | 2.94 ± 0.11 | 3.1 ± 0.25 | 2.98 ± 0.21 | 3.2 ± 0.27 |
| IVRPAKGVATTREKVLE [RRP46] | 3.43 ± 0.16 | 2.83 ± 0.1 | 2.21 ± 0.12 | 3.09 ± 0.082 |
| TNVEDPLAKKQTVRLIK [SIR2] | 2.82 ± 0.077 | 3.08 ± 0.067 | 2.77 ± 0.056 | 2.96 ± 0.06 |
| RRFKNGFQTGSASKASA [RPL37A] | 2.99 ± 0.053 | 2.98 ± 0.056 | 3.06 ± 0.067 | 2.88 ± 0.043 |
| GLKYALATGNWGEQKKA [RPB2] | 2.58 ± 0.097 | 2.85 ± 0.075 | 3.01 ± 0.082 | 2.8 ± 0.063 |
| KEDADLKRMEILKSPHL [SIR4] | 2.88 ± 0.053 | 2.95 ± 0.077 | 2.99 ± 0.053 | 3.08 ± 0.057 |
| AAAAPAPVAAAAPAAAA [FAS2] | – | 1.62 ± 0.27 | – | – |
| LKEVLYNDSATSGEAAA [RPN2] | 1.45 ± 0.057 | 1.52 ± 0.063 | 1.86 ± 0.11 | 1.28 ± 0.056 |
| ETLAYNSLKETLQDFHL [SNF2] | 2.88 ± 0.054 | 3.04 ± 0.058 | 2.61 ± 0.055 | 2.7 ± 0.042 |
| ALMKTLIKFVDLSRNGR [NUT1] | 2.37 ± 0.11 | 2.29 ± 0.09 | 2.26 ± 0.11 | 2.65 ± 0.15 |
| PSAFNFTGNNSTPGGGS [YOR098C/NUP1] | – | – | 3.14 ± 0.13 | – |
| EHKSQVVLYNYYLGQYY [CSN12] | 2.23 ± 0.12 | 1.81 ± 0.13 | 2.71 ± 0.086 | 2.03 ± 0.055 |
| FKKDFEVNISSLDAREA [RPC40] | 2.07 ± 0.059 | 1.58 ± 0.067 | 1.98 ± 0.1 | 2.16 ± 0.092 |
| TTLKSVTIASEIYYDPD [RPO21] | 2.75 ± 0.1 | 2.45 ± 0.085 | 2.82 ± 0.099 | 2.24 ± 0.055 |
| MVKNVKPSSPPDVKSLV [SIR4] | 3.23 ± 0.11 | 3.12 ± 0.063 | 2.97 ± 0.085 | 3.13 ± 0.068 |
| DVLKVNTLVRPNGTKKA [RPL25] | 2.75 ± 0.087 | 2.91 ± 0.08 | 2.89 ± 0.1 | 3.26 ± 0.067 |
| KVAPAPFGAKSTKSNKA [RPL8B] | 2.6 ± 0.085 | 2.78 ± 0.073 | 2.74 ± 0.061 | 2.7 ± 0.043 |
